The text below walks through data of patent US9738726B2, “HER2-specific monoclonal antibodies and conjugates thereof” (The United States of America, as represented by the …, priority 2013, dated 2017).

Data set [1] has as its system MCF-7 cells (do not express Her2). Kind of data set: In vitro cytotoxicity assay, MCF-7 cells. The format is cell-based. The note with it: 72 hours, FIG. 7B. The protocol:
(§1) In Vitro Cytotoxicity Assay
(§2) SKBR3, MCF-7 and JIMT-1 cells were cultured and assayed in DMEM (Life Technologies) with 10% (vol/vol) FBS (Gibco), 100 IU/mL penicillin, and 100 µg/mL streptomycin (Life Technologies). For the cytotoxicity assays, the cancer cell lines were plated in 96-well plates at ˜1,000 cells in 70 μL per well in culture medium and incubated overnight at 37° C. and 5% CO2. Drugs (m860 IgG1, m860 ADC and free drug nAF) were filtered (0.22 μm; Millipore) and 30 μl of serially diluted drugs in culture medium were added into the wells in duplicate and incubated at 37° C. for 72 hours. Colorimetric reagent (Promega) was then added to each well. After a 3-hour incubation at 37° C., the absorbance at 490 nm was measured, and IC50 was determined by GraphPad Prism.

The next data set concerns the target T1, Her2 on SKBR3 cells (Homo sapiens, UniProt P04626).
T1 construct: SKBR3 breast cancer cells, which overexpress Her2, were detached in cell dissociation buffer; endogenous in cells; host or cells: SKBR3 breast cancer cells
Kind of data set: Flow cytometry binding to Her2 on SKBR3 cells. The settings on record: FIGS. 6A-6B. Background: A flow cytometer gives signals particle by particle.

Data set [2] has as its target T2, Her2-ECD-Fc fusion protein (Homo sapiens, UniProt P04626).
T2 construct: three rounds of panning against a recombinant Her2 protein ectodomain; purchased R&D systems
Kind of data set: Phage ELISA screening of clones panned against Her2-ECD-Fc. The settings on record: five unique clones after third round of biopanning. The format is binding. The protocol: A naïve human Fab phage display library (a total of about […] members), constructed from peripheral blood B cells of 10 healthy donors, was used for selection of Fabs against Her2-ECD-Fc fusion protein (R&D systems) conjugated to magnetic beads (DYNABEADS™ M-270 epoxy, Invitrogen). […] After each round of incubation, the beads were washed 5 times for the first round and 15 times for the later rounds with phosphate-buffered saline containing 0.05% Tween 20 (PBST) to remove nonspecifically bound phage. The bead-bound phage were mixed with TG1 cells for 1 hour at 37° C., and the phage was amplified from the infected cells and used in the next round of biopanning. After the third round of biopanning, 190 clones were randomly picked and monoclonal phage was prepared and used for phage ELISA screening to identify the positive binders. […] The nucleotide and amino acid sequences of the m860 VH and VL domains are set forth herein as SEQ ID NOs: 1-4.
(In general: In an ELISA, binding on a coated surface is turned into a signal by an enzyme label.)

Data set [3] relates to JIMT-1 cells (moderate Her2 expression, trastuzumab-resistant patient). Kind of data set: In vitro cytotoxicity assay, JIMT-1 cells. The format is cell-based. The note with it: 72 hours, FIG. 7C. Here is the method: as §1, §2
The next data set has as its target FcγRI (CD64) (Homo sapiens, UniProt P12314). Kind of data set: Surface plasmon resonance (Biacore) binding to FcγRI (CD64). The note with it: SPR, FcγRI immobilized on CM5 chip, 25° C., 1:1 model. The protocol:
(§3) Comparison of the Binding Affinities of m860 and m860 ADC to FcγRIII (CD16) and FcγRI (CD64) Measured by Surface Plasmon Resonance
(§4) Interactions between the antibodies and CD16 and CD64 were analyzed by surface plasmon resonance technology using a Biacore™ X100 instrument (GE healthcare). CD16 or CD64 was covalently immobilized onto a sensor chip (CM5) using carbodiimide coupling chemistry. A control reference surface was prepared for nonspecific binding and refractive index changes. For analysis of the kinetics of interactions, varying concentrations of antibodies were injected at flow rate of 30 μL/min using running buffer containing 10 mmol/L HEPES, 150 mmol/L NaCl, 3 mmol/L EDTA, and 0.05% Surfactant P-20 (pH=7.4). The association and dissociation phase data were fitted simultaneously to a 1:1 model by using BIAevaluation 3.2. All the experiments were done at 25° C.
For orientation: Surface plasmon resonance follows binding to a sensor surface in real time, without labels.

The target of another data set is Her2 (Homo sapiens, UniProt P04626). Description: Competition with Herceptin / epitope comparison. Type of data set: binding.
The target in another data set is FcγRIII (CD16). Kind of data set: Surface plasmon resonance (Biacore) binding to FcγRIII (CD16). The note with it: SPR, FcγRIII immobilized on CM5 chip, 25° C., 1:1 model. The protocol:
as §3, §4

For data set [4], the target named is T3, cell surface-associated Her2 (Homo sapiens, UniProt P04626).
T3 construct: endogenous in cells
Description: Binding to cell surface-associated Her2. The settings on record: compared with trastuzumab (Herceptin).

Data set [5] has as its system SKBR3 cells (overexpress Her2). Kind of data set: In vitro cytotoxicity assay, SKBR3 cells. The format is cell-based. The note with it: 72 hours, FIG. 7A, listed as WT m860 IgG1. Here is the method: as §1, §2

“Also recorded” adds a separate entry of the source. Where a SMILES comes first, the peptide text is derived from it. [ ]: non-standard residue; d: D form. The star is where a group is joined. ξ: configuration not given here. Dolaproine = CO[C@@H]([C@@H]1CCCN1)[C@@H](C)C(=O)O; Dil = CC[C@H](C)[C@H](NC)[C@@H](CC(=O)O)OC; NMe2Val = CC(C)[C@@H](C(=O)*)N(C)C; ξV = CC(C)C(N)C(=O)O; X1 = NOCCOCCOCCN*

Sequence of FcγRI (CD64) (P12314 16-374, species assumed): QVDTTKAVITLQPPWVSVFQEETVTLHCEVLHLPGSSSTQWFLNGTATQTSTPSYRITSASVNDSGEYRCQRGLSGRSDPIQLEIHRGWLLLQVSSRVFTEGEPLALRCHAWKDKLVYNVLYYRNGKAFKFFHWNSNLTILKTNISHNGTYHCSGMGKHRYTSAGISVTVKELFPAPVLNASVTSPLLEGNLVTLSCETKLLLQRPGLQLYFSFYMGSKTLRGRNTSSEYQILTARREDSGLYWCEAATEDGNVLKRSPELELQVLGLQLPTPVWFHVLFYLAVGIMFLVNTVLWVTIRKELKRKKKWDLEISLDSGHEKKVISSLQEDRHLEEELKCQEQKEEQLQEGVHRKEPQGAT
Description for Her2 on SKBR3 cells: SKBR3 breast cancer cells, which overexpress Her2, were detached in cell dissociation buffer and rinsed in PBS. […] Unbound antibodies were washed away with PBSA. The secondary antibody, goat anti-human IgG conjugated with PE (Sigma), was diluted at 1:100 and incubated with cells on ice for 30 minutes. Cells were washed and resuspended in PBSA buffer for flow cytometry analysis on FACSCalibur (Becton Dickinson).

In the case of `CC[C@H](C)[C@@H]([C@@H](CC(=O)N1CCC[C@H]1[C@H](OC)[C@@H](C)C(=O)N[C@@H](Cc1ccccc1)C(=O)NCCOCCOCCON)OC)N(C)C(=O)C(NC(=O)[C@H](C(C)C)N(C)C)C(C)C` (stereo partly shown) [nAF, Auristatin F with a non-cleavable linker attached at the C-terminus] (NMe2Val-[ξV][Dil][Dolaproine]F-X1), in data set [1], the cytotoxicity entry was “significant cytotoxicity”.

B1: M860 IgG1: Her2-specific human monoclonal antibody from naïve phage display Fab library, VH SEQ ID NO: 2, VL SEQ ID NO: 4, converted to full size human IgG1 (antibody, V domains shown)
VH: EVQLVQSGAEVKKPGESLKISCKGSGYSFTSYWIGWVRQMPGKGLEWMGIIYPGDCDRSDTRYSPSFQGQVTISADKSISTAYLQWSSLKASDTAMYYCARQYSGYDRYYFDYWGQGTLVTVSS
VL: QTVVTQEPSFSVSPGGTVTLTCGLNSGSVSTRHYPSWYQQTPGQAPRTLIYSTDICDRRSSGAPSHISGSILGNKAALTITGAQADDASDYYCALYLGNGIAVFGSGTKVTVLG
modifications: IgG1 constant regions without entry
The term Kd denotes the constant that tells how readily two partners part at equilibrium. Low values mean a tighter complex, high ones a looser complex. Consider B1, for which the “binding activity to Her2 on SKBR3 cells before and after nAF conjugation” value with Her2 on SKBR3 cells is given as “not impacted by nAF conjugation”. For the same molecule, the “binding activity in phage ELISA screening” value in data set [2] was “highest binding activity”. The cytotoxicity entry in [3] is given as “little effect”. In the data set with FcγRI (CD64), this molecule displayed a dissociation constant Kd of 22.5 nM, a ka of 44790 M⁻¹ s⁻¹ and a kd of 0.001007 s⁻¹. Besides, the “competition with Herceptin / epitope relative to trastuzumab” value in the data set with Her2 is “binds to a different epitope”. Also, at FcγRIII (CD16), the Kd came out at 1500 nM, the ka stood at 11080 M⁻¹ s⁻¹ and the kd is 0.01608 s⁻¹. Besides, the “affinity for cell surface-associated Her2” value in [4] is on record as “comparable to that of trastuzumab”. Also, the cytotoxicity result in [5] is “did not exhibit any cytotoxicity; also recorded: did not show any cytotoxicity”.
